According to patent US20040001801A1 (priority 2002, published 2004):
Square brackets hold non-standard residues; d marks the D form. Peptide text beside a SMILES is read from it. * marks the point of attachment. Doxorubicin(3'-N) = COc1cccc2c1C(=O)c1c(O)c3c(c(O)c1C2=O)C[C@@](O)(C(=O)CO)C[C@@H]3O[C@H]1C[C@H](N*)[C@H](O)[C@H](C)O1; Nle = CCCC[C@H](N)C(=O)O

Conditions: mouse, in vivo

SMILES: CCCC[C@H](NC(=O)[C@H](CO)NC(=O)[C@H](CCCNC(=N)N)NC(=O)CNC(=O)[C@H](CO)NC(=O)CNC(C)=O)C(=O)N[C@H]1C[C@H](O[C@H]2C[C@](O)(C(=O)CO)Cc3c(O)c4c(c(O)c32)C(=O)c2c(OC)cccc2C4=O)O[C@@H](C)[C@H]1O [Ac-Gly-Ser-Gly-Arg-Ser-nLeu-Dox] (Ac-GSGRS[Nle]-{Doxorubicin(3'-N)})
- levels of dox and nor-leu dox in the plasma compared with the tumor: lower levels
- parent conjugate in the tumor: does not get into the tumor
- toxins (norleu dox and dox) concentrations in the tumor: μM concentrations
